From the supplement of paper PMC9112550, “Optimization of the antimicrobial peptide Bac7 by deep mutational scanning” (BMC Biology, 2022)

System: Escherichia coli TOP10
Test: shrunken log2 fold change of peptide-encoding DNA abundance (4.5 h post-induction vs induction); higher = less antimicrobial activity (less host growth inhibition)
Conditions: time post-induction: 4.5 h; library: site-saturation at positions 5, 18, 19, 20
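Further: peptides expressed intracellularly from a pBAD plasmid library in pooled LB shake-flask culture, induced with 0.3% L-arabinose, DNA abundance read by NGS, three biological replicates, DESeq2 with apeglm shrinkage.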

| Sequence | shrunken log2 fold change |
| --- | --- |
| RRIRCRPPRLPRPRPRPRLDPRP | 0.154 |
| RRIRKRPPRLPRPRPRPPREPRP | 0.689 |
| RRIRWRPPRLPRPRPRPRFLPRP | 0.0174 |
| RRIRERPPRLPRPRPRPCYHPRP | -0.744 |
| RRIRDRPPRLPRPRPRPAGRPRP | 0.632 |
| RRIRTRPPRLPRPRPRPMKFPRP | -0.116 |
| RRIRLRPPRLPRPRPRPFKIPRP | -0.00613 |
| RRIRERPPRLPRPRPRPCLKPRP | 0.0135 |
| RRIRIRPPRLPRPRPRPKPFPRP | -0.00302 |
| RRIRPRPPRLPRPRPRPGLRPRP | 3.24 |
| RRIRFRPPRLPRPRPRPNPEPRP | -0.197 |
| RRIRMRPPRLPRPRPRPRGRPRP | 1.2 |
| RRIRHRPPRLPRPRPRPHKYPRP | -0.242 |
| RRIRPRPPRLPRPRPRPAFLPRP | -0.0283 |
| RRIRSRPPRLPRPRPRPPHHPRP | -0.0759 |
| RRIRERPPRLPRPRPRPPGVPRP | 0.232 |
| RRIRGRPPRLPRPRPRPQDYPRP | -0.0805 |
| RRIRLRPPRLPRPRPRPYVHPRP | -0.783 |
| RRIRHRPPRLPRPRPRPFDPPRP | -0.101 |
| RRIRERPPRLPRPRPRPMKCPRP | 0.00911 |

| Sequence | shrunken log2 fold change |
| --- | --- |
| RRIRLRPPRLPRPRPRPCNLPRP | 0.034 |
| RRIRRRPPRLPRPRPRPFFIPRP | -0.0305 |
| RRIRCRPPRLPRPRPRPPLAPRP | 0.79 |
| RRIRYRPPRLPRPRPRPEHRPRP | 0.0623 |
| RRIRLRPPRLPRPRPRPCKDPRP | -0.194 |
| RRIRNRPPRLPRPRPRPDAVPRP | 0.0764 |
| RRIRSRPPRLPRPRPRPYVAPRP | -0.402 |
| RRIRQRPPRLPRPRPRPGIFPRP | 0.0804 |
| RRIRDRPPRLPRPRPRPCTSPRP | -0.000687 |
| RRIRGRPPRLPRPRPRPQNEPRP | 0.208 |
| RRIRKRPPRLPRPRPRPYWYPRP | -0.667 |
| RRIRQRPPRLPRPRPRPFAKPRP | -0.0663 |
| RRIRKRPPRLPRPRPRPKTWPRP | 0.344 |
| RRIRHRPPRLPRPRPRPNTLPRP | -0.0867 |
| RRIRKRPPRLPRPRPRPRQMPRP | 0.0035 |
| RRIRWRPPRLPRPRPRPKHGPRP | 0.186 |
| RRIRHRPPRLPRPRPRPEPAPRP | 1.48 |
| RRIRRRPPRLPRPRPRPNIDPRP | -0.0882 |
| RRIRLRPPRLPRPRPRPQAAPRP | 0.0357 |
| RRIRSRPPRLPRPRPRPVFIPRP | -0.598 |

| Sequence | shrunken log2 fold change |
| --- | --- |
| RRIRERPPRLPRPRPRPRNHPRP | -0.367 |
| RRIRMRPPRLPRPRPRPLPHPRP | 0.407 |
| RRIRERPPRLPRPRPRPWMNPRP | -0.0137 |
| RRIRARPPRLPRPRPRPYPWPRP | -0.32 |
| RRIRERPPRLPRPRPRPAFTPRP | -0.0832 |
| RRIRPRPPRLPRPRPRPAGFPRP | 0.301 |
| RRIRIRPPRLPRPRPRPTGNPRP | -0.626 |
| RRIRKRPPRLPRPRPRPIDLPRP | -0.0822 |
| RRIRSRPPRLPRPRPRPFHQPRP | -0.418 |
| RRIRFRPPRLPRPRPRPCVFPRP | -0.0936 |
| RRIRMRPPRLPRPRPRPRRTPRP | 1.76 |
| RRIRLRPPRLPRPRPRPEYTPRP | -0.0657 |
| RRIRNRPPRLPRPRPRPSQHPRP | -0.0437 |
| RRIRHRPPRLPRPRPRPVMEPRP | 0.105 |
| RRIRGRPPRLPRPRPRPPVLPRP | 0.25 |
| RRIRERPPRLPRPRPRPTAVPRP | -0.113 |
| RRIRFRPPRLPRPRPRPMPTPRP | 0.432 |
| RRIRHRPPRLPRPRPRPQQNPRP | -0.0705 |
| RRIRYRPPRLPRPRPRPPGVPRP | 0.259 |
| RRIRNRPPRLPRPRPRPTLIPRP | -0.461 |
